In IntAct's records for PubMed 40475291:

B1: Patched domain-containing protein 1 (Mus musculus), Q14B62 (parent)
chain: MLRQVLHRGLRTCFSRLGHFIASHPVFFASAPVLISILLGASFSRYQVEESVEHLLAPQHSLAKIERNLVNSLFPVNRSKHRLYSDLQTPGRYGRVIVTSYQKANMLDQHHTDLILKLHTAVTKIQVPRPGFNYTFAHICVLNNDKTCIVDDIVHVLEELKNARATNRTNFAITYPITHLKDGRAVYNGHQLGGVTVHSKDRVKSAEAIQLTYYLQSINSLNDMVAERWESSFCDTVKLFQKSNSKVKIYPYTSSSLREDFQKTSRVSERYLVTSLILVVTMAILCCSMQDCVRSKPWLGLLGLVTISLATLTAAGIINLTGGKYNSTFLGVPFVMLGHGLYGTFEMLSSWRKTREDQHVKERTAEVYADSMLSFSLTTAMYLVTFGIGASPFTNIEAARIFCCNSCIAILFNYLYVLSFYGSSLVFTGYIENNYQHSIFCRKVPKPDVLQEKPAWYRFLLTARFSEETAEGEEANTYESHLLVCFLKRYYCDWITNTYVKPFVVLFYLIYISFALMGYLQVSEGSDLSNIVATATQTIEYTTAHQKYFNNYSPVIGFYIYESIEYWNSSVQEDVLEYTKGFVRISWFESYLNYLRKLNVSTDLPKKNFTDMLRNSFLKTPQFSHFQEDIIFSKKYNDEVDVVASRMFLVAKTMETNREELYDLLETLRRLSVTSKVKFIVFNPSFVYMDRYASSLGAPLHNSCISALFLLFFSAFLVADSLINVWITLTVVSVEFGVIGFMTLWKVELDCISVLCLIYGINYTIDNCAPLLSTFVLGKDFTRTKWVKNALEVHGVAILQSYLCYIVGLFPLAAVPSNLTCTLFRCLFLIAFVTFFHCFAILPVILTFLPPSKKKRKEKKNPENREEIECVEMVDIDSTRVVDQITTV
partner: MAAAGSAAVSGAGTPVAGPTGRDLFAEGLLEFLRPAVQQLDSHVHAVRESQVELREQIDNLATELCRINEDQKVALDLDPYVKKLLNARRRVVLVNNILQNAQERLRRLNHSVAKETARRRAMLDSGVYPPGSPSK

Variants of: B1
Settings: with snapn_mouse Snapin

Variant | effect of a mutation on the interaction
V150M | with no effect
V195I | decreasing interaction strength
Q102R | with no effect
K181T | decreasing interaction strength
P75Q | decreasing interaction strength
P75L | decreasing interaction strength
L73F | with no effect
S51N | with no effect

Now from value to variant:

effect of a mutation on the interaction | Variant
increasing interaction strength | D527E
decreasing interaction strength | Y213C
increasing interaction strength | F549C
increasing interaction strength | T602A
